Experimental data published in patent publication US20220251595A1, “ENGINEERED ATRLP23 PATTERN RECOGNITION RECEPTORS AND METHODS OF USE” (priority 2019, published 2022).

Tested on: corn protoplasts
Experiment: Calcium burst in transiently transfected corn protoplasts, R-GECO1.2 fluorescence reporter
Format: cell-based, Zea mays
Conditions: 1 μM PpNLP20; for Ca^2+ increase in response to PpNLP20 treatment (R-GECO1.2 fluorescence): transient expression in corn protoplasts
Description: Following ligand (also known as elicitor) binding, PRRs are activated and induce a transient increase of cytosolic Ca^2+ concentration as part of a PTI response. […] In a high-throughput method, the kinetics of PRR-dependent transient variation of cytosolic Ca^2+ concentration can be measured with a fluorimeter or luminometer and in microplate formats of 96 or 384 wells.
Fluorescence was monitored using a fluorimeter equipped with a 100 Hz xenon flash lamp with excitation at 556 nm and emission measured at 585 nm for 100 ms, every 22.6 seconds for 42 minutes.
All of the AtRLP23 constructs have an operably linked 2×35S+Ω promoter construct (SEQ ID NO: 72) and an operably linked rbcS terminator (SEQ ID NO: 73)
Fluorescence was monitored using a fluorimeter equipped with a 100 Hz xenon flash lamp with excitation at 556 nm and emission measured at 585 nm for 30 ms, every 20.2 seconds for 40 minutes. For each fluorescence measurement, the transient change in R-GECO1.2 fluorescence (ΔF) are calculated from background corrected intensity values as (F-Fo), where F represents the average fluorescence intensity of the a batch of protoplasts treated with elicitor, and Fo represents the average fluorescence intensity of the same batch of protoplasts treated with a control solution that lacks the elicitor but is otherwise identical or essentially identical in composition to the solution comprising the elicitor.

B1: AtRLP23-3×FLAG: AtRLP23 (amino acids 1-890) linked to the 3×FLAG peptide; SEQ ID NO: 13 (nucleotide), 14 (protein) (protein)
chain: MSKALLHLHFLSLFLLCCVCHSSIFTLNFHFTGIVACRPHQIQAFTKFTNEFDTRGCNNSDTFNGVWCDNSTGAVAVLQLRKCLSGTLKSNSSLFGFHQLRYVDLQNNNLTSSSLPSGFGNLKRLEGLFLSSNGFLGQVPSSFSNLTMLAQLDLSYNKLTGSFPLVRGLRKLIVLDLSYNHFSGTLNPNSSLFELHQLRYLNLAFNNFSSSLPSKFGNLHRLENLILSSNGFSGQVPSTISNLTRLTKLYLDQNKLTSSFPLVQNLTNLYELDLSYNKFFGVIPSSLLTLPFLAHLALRENNLAGSVEVSNSSTSSRLEIMYLGSNHFEGQILEPISKLINLKHLDLSFLNTSYPIDLKLFSSLKSLRSLDLSGNSISSASLSSDSYIPLTLEMLTLRHCDINEFPNILKTLKELVYIDISNNRMKGKIPEWLWSLPLLQSVTLGNNYFTGFQGSAEILVNSSVLLLYLDSNNFEGALPDLPLSIKGFGVASNSFTSEIPLSICNRSSLAAIDLSYNNFTGPIPPCLRNLELVYLRNNNLEGSIPDALCDGASLRTLDVSHNRLTGKLPRSFVNCSSLKFLSVINNRIEDTFPFWLKALPNLQVLTLRSNRFYGPISPPHQGPLGFPELRIFEISDNKFTGSLPPNYFVNWKASSRTMNQDGGLYMVYEEKLFDEGGYGYTDALDLQYKGLHMEQAKALTSYAAIDFSGNRLEGQIPESIGLLKALIAVNISNNAFTGHIPLSMANLENLESLDMSRNQLSGTIPNGLGSISFLAYINVSHNQLTGEIPQGTQITGQSKSSFEGNAGLCGLPLKESCFGTGAPPMYHQKQEDKEEEEEEEEEEEEVLNGRAVAIGYGSGLLLGLAIAQVIASYKPEWLVKIIGLNKRRKRSDYKDHDGDYKDHDLDAAAADYKDDDDK
modifications: Fusion protein
For B1, which “Ca^2+ increase in response to PpNLP20 treatment (R-GECO1.2 fluorescence)” value (shortened to “Ca^2+ increase in response”) is on record?
The value was “significant Ca^2+ increase”.

B2: AtRLP23-eJMVe1-3×FLAG: AtRLP23 with the SlVe1 eJM domain, 3×FLAG; SEQ ID NO: 53, 54 (protein)
chain: MSKALLHLHFLSLFLLCCVCHSSIFTLNFHFTGIVACRPHQIQAFTKFTNEFDTRGCNNSDTFNGVWCDNSTGAVAVLQLRKCLSGTLKSNSSLFGFHQLRYVDLQNNNLTSSSLPSGFGNLKRLEGLFLSSNGFLGQVPSSFSNLTMLAQLDLSYNKLTGSFPLVRGLRKLIVLDLSYNHFSGTLNPNSSLFELHQLRYLNLAFNNFSSSLPSKFGNLHRLENLILSSNGFSGQVPSTISNLTRLTKLYLDQNKLTSSFPLVQNLTNLYELDLSYNKFFGVIPSSLLTLPFLAHLALRENNLAGSVEVSNSSTSSRLEIMYLGSNHFEGQILEPISKLINLKHLDLSFLNTSYPIDLKLFSSLKSLRSLDLSGNSISSASLSSDSYIPLTLEMLTLRHCDINEFPNILKTLKELVYIDISNNRMKGKIPEWLWSLPLLQSVTLGNNYFTGFQGSAEILVNSSVLLLYLDSNNFEGALPDLPLSIKGFGVASNSFTSEIPLSICNRSSLAAIDLSYNNFTGPIPPCLRNLELVYLRNNNLEGSIPDALCDGASLRTLDVSHNRLTGKLPRSFVNCSSLKFLSVINNRIEDTFPFWLKALPNLQVLTLRSNRFYGPISPPHQGPLGFPELRIFEISDNKFTGSLPPNYFVNWKASSRTMNQDGGLYMVYEEKLFDEGGYGYTDALDLQYKGLHMEQAKALTSYAAIDFSGNRLEGQIPESIGLLKALIAVNISNNAFTGHIPLSMANLENLESLDMSRNQLSGTIPNGLGSISFLAYINVSHNQLTGEIPQGTQITGQSKSSFEGNAGLCGLPLKESCFGTGAPPMYHQKQEDESLPPPTPLPDSDDEWEAVAIGYGSGLLLGLAIAQVIASYKPEWLVKIIGLNKRRKRSDYKDHDGDYKDHDLDAAAADYKDDDDK
modifications: Fusion protein
B2 was tested. Which “Ca^2+ increase in response” value did it give?
The value was “Ca^2+ increase”.

B3: AtRLP23-AtBAK1-3×FLAG: AtRLP23 apoplastic and eJM domains, AtBAK1 TM and cytoplasmic domains, 3×FLAG; SEQ ID NO: 25, 26 (protein)
chain: MSKALLHLHFLSLFLLCCVCHSSIFTLNFHFTGIVACRPHQIQAFTKFTNEFDTRGCNNSDTFNGVWCDNSTGAVAVLQLRKCLSGTLKSNSSLFGFHQLRYVDLQNNNLTSSSLPSGFGNLKRLEGLFLSSNGFLGQVPSSFSNLTMLAQLDLSYNKLTGSFPLVRGLRKLIVLDLSYNHFSGTLNPNSSLFELHQLRYLNLAFNNFSSSLPSKFGNLHRLENLILSSNGFSGQVPSTISNLTRLTKLYLDQNKLTSSFPLVQNLTNLYELDLSYNKFFGVIPSSLLTLPFLAHLALRENNLAGSVEVSNSSTSSRLEIMYLGSNHFEGQILEPISKLINLKHLDLSFLNTSYPIDLKLFSSLKSLRSLDLSGNSISSASLSSDSYIPLTLEMLTLRHCDINEFPNILKTLKELVYIDISNNRMKGKIPEWLWSLPLLQSVTLGNNYFTGFQGSAEILVNSSVLLLYLDSNNFEGALPDLPLSIKGFGVASNSFTSEIPLSICNRSSLAAIDLSYNNFTGPIPPCLRNLELVYLRNNNLEGSIPDALCDGASLRTLDVSHNRLTGKLPRSFVNCSSLKFLSVINNRIEDTFPFWLKALPNLQVLTLRSNRFYGPISPPHQGPLGFPELRIFEISDNKFTGSLPPNYFVNWKASSRTMNQDGGLYMVYEEKLFDEGGYGYTDALDLQYKGLHMEQAKALTSYAAIDFSGNRLEGQIPESIGLLKALIAVNISNNAFTGHIPLSMANLENLESLDMSRNQLSGTIPNGLGSISFLAYINVSHNQLTGEIPQGTQITGQSKSSFEGNAGLCGLPLKESCFGTGAPPMYHQKQEDKEEEEEEEEEEEEVLNGRITGAIAGGVAAGAALLFAVPAIALAWWRRKKPQDHFFDVPAEEDPEVHLGQLKRFSLRELQVASDNFSNKNILGRGGFGKVYKGRLADGTLVAVKRLKEERTQGGELQFQTEVEMISMAVHRNLLRLRGFCMTPTERLLVYPYMANGSVASCLRERPESQPPLDWPKRQRIALGSARGLAYLHDHCDPKIIHRDVKAANILLDEEFEAVVGDFGLAKLMDYKDTHVTTAVRGTIGHIAPEYLSTGKSSEKTDVFGYGVMLLELITGQRAFDLARLANDDDVMLLDWVKGLLKEKKLEALVDVDLQGNYKDEEVEQLIQVALLCTQSSPMERPKMSEVVRMLEGDGLAERWEEWQKEEMFRQDFNYPTHHPAVSGWIIGDSTSQIENEYPSGPRSDYKDHDGDYKDHDLDAAAADYKDDDDK
modifications: Fusion protein
With B3 as the molecule, how does the “responsiveness to PpNLP20 treatment compared to AtRLP23-3×FLAG (total transient increase of fluorescence)” value (Example 3, FIG. 4, 40 minutes, 384-well) read?
Its value is “reduced responsiveness”.

B4: AtRLP23-eJMAtRLP1-3×FLAG: AtRLP23 with the AtRLP1 eJM domain, 3×FLAG; SEQ ID NO: 49, 50 (protein)
chain: MSKALLHLHFLSLFLLCCVCHSSIFTLNFHFTGIVACRPHQIQAFTKFTNEFDTRGCNNSDTFNGVWCDNSTGAVAVLQLRKCLSGTLKSNSSLFGFHQLRYVDLQNNNLTSSSLPSGFGNLKRLEGLFLSSNGFLGQVPSSFSNLTMLAQLDLSYNKLTGSFPLVRGLRKLIVLDLSYNHFSGTLNPNSSLFELHQLRYLNLAFNNFSSSLPSKFGNLHRLENLILSSNGFSGQVPSTISNLTRLTKLYLDQNKLTSSFPLVQNLTNLYELDLSYNKFFGVIPSSLLTLPFLAHLALRENNLAGSVEVSNSSTSSRLEIMYLGSNHFEGQILEPISKLINLKHLDLSFLNTSYPIDLKLFSSLKSLRSLDLSGNSISSASLSSDSYIPLTLEMLTLRHCDINEFPNILKTLKELVYIDISNNRMKGKIPEWLWSLPLLQSVTLGNNYFTGFQGSAEILVNSSVLLLYLDSNNFEGALPDLPLSIKGFGVASNSFTSEIPLSICNRSSLAAIDLSYNNFTGPIPPCLRNLELVYLRNNNLEGSIPDALCDGASLRTLDVSHNRLTGKLPRSFVNCSSLKFLSVINNRIEDTFPFWLKALPNLQVLTLRSNRFYGPISPPHQGPLGFPELRIFEISDNKFTGSLPPNYFVNWKASSRTMNQDGGLYMVYEEKLFDEGGYGYTDALDLQYKGLHMEQAKALTSYAAIDFSGNRLEGQIPESIGLLKALIAVNISNNAFTGHIPLSMANLENLESLDMSRNQLSGTIPNGLGSISFLAYINVSHNQLTGEIPQGTQITGQSKSSFEGNAGLCGLPLKESCFGTGAPPMYHQKQEDTHAKEEENEEEGNVIDAVAIGYGSGLLLGLAIAQVIASYKPEWLVKIIGLNKRRKRSDYKDHDGDYKDHDLDAAAADYKDDDDK
modifications: Fusion protein
Which “Ca^2+ increase in response” value does the source give for B4 here?
Its value is “Ca^2+ increase”.

B5: AtRLP23-eJM(EEEE/ADQ−)-3×FLAG (protein)
chain: SIFTLNFHFTGIVACRPHQIQAFTKFTNEFDTRGCNNSDTFNGVWCDNSTGAVAVLQLRKCLSGTLKSNSSLFGFHQLRYVDLQNNNLTSSSLPSGFGNLKRLEGLFLSSNGFLGQVPSSFSNLTMLAQLDLSYNKLTGSFPLVRGLRKLIVLDLSYNHFSGTLNPNSSLFELHQLRYLNLAFNNFSSSLPSKFGNLHRLENLILSSNGFSGQVPSTISNLTRLTKLYLDQNKLTSSFPLVQNLTNLYELDLSYNKFFGVIPSSLLTLPFLAHLALRENNLAGSVEVSNSSTSSRLEIMYLGSNHFEGQILEPISKLINLKHLDLSFLNTSYPIDLKLFSSLKSLRSLDLSGNSISSASLSSDSYIPLTLEMLTLRHCDINEFPNILKTLKELVYIDISNNRMKGKIPEWLWSLPLLQSVTLGNNYFTGFQGSAEILVNSSVLLLYLDSNNFEGALPDLPLSIKGFGVASNSFTSEIPLSICNRSSLAAIDLSYNNFTGPIPPCLRNLELVYLRNNNLEGSIPDALCDGASLRTLDVSHNRLTGKLPRSFVNCSSLKFLSVINNRIEDTFPFWLKALPNLQVLTLRSNRFYGPISPPHQGPLGFPELRIFEISDNKFTGSLPPNYFVNWKASSRTMNQDGGLYMVYEEKLFDEGGYGYTDALDLQYKGLHMEQAKALTSYAAIDFSGNRLEGQIPESIGLLKALIAVNISNNAFTGHIPLSMANLENLESLDMSRNQLSGTIPNGLGSISFLAYINVSHNQLTGEIPQGTQITGQSKSSFEGNAGLCGLPLKESCFGTGAPPMYHQKQEDKEEEEAEEDEQEVLNGRAVAIGYGSGLLLGLAIAQVIASYKPEWLVKIIGLNKRRKRSDYKDHDGDYKDHDLDAAAADYKDDDDK
Which “Ca^2+ increase in response” value does the source give for B5 here?
The value was “Ca^2+ increase”.
